Read-outs that look alike come from different tables or passages of the source.

Results on three molecules are retold here after patent US20180250395A1 (Janssen / Centocor, published 2018).

The target of experiment [1] is T1, recombinant human CD47 extracellular domain (ECD), His-tagged, monomer (human, UniProt Q08722 19-141).
T1 construct: C-terminal 6xHis tag; monomeric fraction from Superdex 200; also called human CD47 ECD; CD47-ECD monomer
Put plainly: method not restated.

The target in experiment [2] is T2, Cyno CD47 ECD protein, His-tagged, monomer (cyno).
T2 construct: extracellular domain; also called cynomolgus CD47
Put plainly: ProteOn SPR; cyno KD / human KD.
Method: (§1) Kinetic binding affinities to human CD47 and Cyno CD47 ECD proteins were determined by a Protein Interaction Array System (ProteOn). Briefly, mAbs were captured on the sensor chip via anti-IgG-Fc to reach surface density of 200-350 RU. […] The dissociation was monitored for 30 min. Data were fitted to 1:1 binding model.

In experiment [3] the target is T1, recombinant human CD47 extracellular …. Put plainly: ProteOn SPR; mAb captured, ECD monomer as analyte.
The target of experiment [4] is T2, Cyno CD47 ECD protein, His-tagged, …. The experiment in a line: ProteOn SPR; mAb captured, ECD monomer as analyte.
The target in experiment [5] is T3, recombinant human CD47 extracellular domain (ECD), His-tagged, dimer (human, UniProt Q08722 19-141).
T3 construct: Dimeric fraction of the same His-tagged ECD; also called His-tagged CD47-ECD dimer protein
The experiment in a line: MSD; CD47-ECD dimer binding to captured SIRP alpha-Fc, mAb 10 µg/ml.

For experiment [6], the target named is T2, Cyno CD47 ECD protein, His-tagged, …. The experiment in a line: ProteOn SPR; cyno KD / human KD. This is another data set of the same source.
Experiment [7] has as its target T4, human CD47 on Jurkat cells (human, UniProt Q08722 19-323).
T4 construct: Endogenous CD47 of the cell lines; also called CD47-expressing Jurkat cells; CD47 on HL60 cells
Put plainly: MSD on Jurkat cells; blocks SIRP alpha-Fc binding.
From the text: The ECL signal was plotted as a function of antibody concentrations, and EC₅₀ values were obtained from fitting the dose-response curves using non-linear regression model in GraphPad Prism.

Experiment [8] addresses T1, recombinant human CD47 extracellular …. The experiment in a line: ProteOn SPR; mAb captured, ECD monomer as analyte. The source holds these as a separate data set.
Method: as §1
The target of experiment [9] is T2, Cyno CD47 ECD protein, His-tagged, …. Put plainly: ProteOn SPR; mAb captured, ECD monomer as analyte. The source holds these as a separate data set.
Method: as §1
The target is the same in experiment [10]. The experiment in a line: ProteOn SPR; cyno KD / human KD. The source holds these as a separate data set.
Experiment [11] has as its target T1, recombinant human CD47 extracellular …. Put plainly: ProteOn SPR; mAb captured, ECD monomer as analyte. The source holds these as a separate data set.
Experiment [12] concerns the target T2, Cyno CD47 ECD protein, His-tagged, …. The experiment in a line: ProteOn SPR; mAb captured, ECD monomer as analyte. The source holds these as a separate data set.
Experiment [13] addresses T4, human CD47 on Jurkat cells. The experiment in a line: MSD on Jurkat cells; blocks SIRP alpha-Fc binding. This is another data set of the same source.

B1: C47B167 (antibody, V domains shown)
VH: EVQLVQSGAEVKKPGESLKISCKGSGYTFTSYWMQWVRQMPGKGLEWMGEINPSNGRTDYNEKFRGQVTISADKSISTAYLQWSSLKASDTAMYYCARQGGSGYGNSYGFFDVWGQGTTVTVSS
VL: EIVLTQSPATLSLSPGERATLSCRASSSVSYMHWYQQKPGQAPRLLIYDTSRLASGIPARFSGSGSGTDFTLTISSLEPEDFAVYYCQQWRSNPYTFGGGTKVEIK
notes: isotype not restated
With B1, the Kd in experiment [1] turned out to be 5.2 nM.

B2: C47B91 (antibody, human IgG2, V domains shown)
VH: EVQLVQSGAEVKKPGESLKISCKGSGYSFTSYWIGWVRQMPGKGLEWMGIIYPGDSDTRYSPSFQGQVTISADKSISTAYLQWSSLKASDTAMYYCARVGRFASHQLDYWGQGTLVTVSS
VL: EIVLTQSPATLSLSPGERATLSCRASQSVNKALAWYQQKPGQAPRLLIYGASNRATGIPARFSGSGSGTDFTLTISSLEPEDFAVYYCQQGKGWPFTFGQGTKVEIK
notes: phage-derived; also called C47M91; parent C47B91
B2: the “KD Ratio Cyno/Human” value in experiment [2] was 1.6; in [6] it was 3. Moreover, the Kd in [3] worked out at 5.95 nM; in experiment [4] it was 17.8 nM; in [8], 15.6 nM; in [9] it was 24.5 nM. Further, the “% SIRP alpha Inhibition” value in [5] amounted to 82.6%. This molecule also gave an EC50 in experiment [7] of 0.06 µg/mL.

B3: C47B116 (antibody, human IgG2, V domains shown)
VH: EVQLQQSGPELVKPGASVKISCKASGYTFTDYNMHWVKQSHGKSLEWIGDIYPYNGGTGYNQKFKSKATLTVDNSSSTAYMELRSLTSEDSAVYYCARGGWHAMDSWGQGTSVTVSS
VL: DVVMTQTPLSLPVSLGDQASISCRSRQSIVHTNRYTYLAWYLQKPGQSPKLLIYKVSNRFSGVPDRFSGSGSGTDFTLKISRVEAEDLGVYYCFQGSHVPYTFGGGTKLEIK
notes: hybridoma-derived, chimeric human IgG2 Fc-silent/human kappa; also called parent hybridoma mAb C47B116
B3: the “KD Ratio Cyno/Human” value in experiment [2] was 0.7; in [10] it was 0.9. Moreover, the Kd in [11] was 1.02 nM; in experiment [12] it was 0.95 nM; in [8] it was 1.41 nM; in [9], 0.967 nM. The EC50 is 0.1 µg/mL in experiment [7] and 0.12 µg/mL in experiment [13].

One may read the Kd as a measure of binding affinity in units of concentration. For orientation: EC50 means the concentration at which the effect is half-maximal. High values mean a less potent agent, low ones a more potent agent.
